In doi:10.1101/2022.09.11.507496 one finds fold smaller 2D affinity than TCR–pMHC data, which are given here for one substance.

The target in this test is VSV:H2-K^b (mouse | not stated) (UniProt P03521). Description: micropipette adhesion frequency.
Sequence of UniProt P03521 (P03521 whole entry, looked up): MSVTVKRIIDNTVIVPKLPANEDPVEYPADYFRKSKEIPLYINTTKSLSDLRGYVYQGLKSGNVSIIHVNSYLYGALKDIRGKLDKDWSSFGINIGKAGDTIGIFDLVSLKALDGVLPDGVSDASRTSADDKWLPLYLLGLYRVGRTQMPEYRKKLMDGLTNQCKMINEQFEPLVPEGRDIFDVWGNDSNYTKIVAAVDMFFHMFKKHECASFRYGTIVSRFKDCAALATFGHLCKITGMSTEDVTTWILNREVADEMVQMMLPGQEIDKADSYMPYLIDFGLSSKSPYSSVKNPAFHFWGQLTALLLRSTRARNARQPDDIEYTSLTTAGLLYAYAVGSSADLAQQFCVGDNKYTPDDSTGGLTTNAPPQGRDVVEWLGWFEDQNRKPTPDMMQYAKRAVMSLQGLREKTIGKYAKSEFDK

“CD8 on CD8+ T cells of OT-I mice (from UniProt P01731;P10300) (receptor)” came in with a fold smaller 2D affinity than TCR–pMHC of 500 fold.
